Results from US20250084176A1 (F STAR BETA, published 2025).
Substitutions are numbered along the chain they refer to.

T1: cCD137-mFc-Avi (cynomolgus; mouse, one biotin on the Avi sequence of each monomer (BirA); unbiotinylated in the SPR of Example 5.6)
T1 construct: also called cyno CD137-mFc-Avi; dimeric cynomolgus CD137; not shown: mouse IgG2a Fc domain (mIgG2a Fc)
T1 chain: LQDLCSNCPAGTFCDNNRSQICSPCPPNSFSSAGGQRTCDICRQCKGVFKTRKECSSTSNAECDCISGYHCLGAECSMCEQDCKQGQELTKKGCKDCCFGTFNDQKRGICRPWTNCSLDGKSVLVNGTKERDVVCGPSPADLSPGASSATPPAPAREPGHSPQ

T2: human OX40 (human, UniProt P43489 29-216, limits assumed)
T2 sequence (looked up): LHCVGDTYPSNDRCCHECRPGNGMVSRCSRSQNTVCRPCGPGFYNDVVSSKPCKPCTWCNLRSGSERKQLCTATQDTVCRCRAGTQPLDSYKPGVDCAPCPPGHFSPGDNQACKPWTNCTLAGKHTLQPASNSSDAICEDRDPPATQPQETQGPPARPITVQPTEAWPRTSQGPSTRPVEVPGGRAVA

T3: human GITR (human, UniProt Q9Y5U5 26-161, limits assumed)
T3 sequence (looked up): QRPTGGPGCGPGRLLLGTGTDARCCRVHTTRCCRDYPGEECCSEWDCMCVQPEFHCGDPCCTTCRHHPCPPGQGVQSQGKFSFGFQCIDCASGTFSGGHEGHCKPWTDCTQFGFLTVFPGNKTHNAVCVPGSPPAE

B1: FS22-053-017/HelD1.3 (bispecific antibody, human IgG1, kappa)
heavy: QVQLQESGPGLVRPSQTLSLTCTVSGSTFSGYGVNWVRQPPGRGLEWIGMIWGDGNTDYNSALKSRVTMLVDTSKNQFSLRLSSVTAADTAVYYCARERDYRLDYWGQGSLVTVSSASTKGPSVFPLAPSSKSTSGGTAALGCLVKDYFPEPVTVSWNSGALTSGVHTFPAVLQSSGLYSLSSVVTVPSSSLGTQTYICNVNHKPSNTKVDKKVEPKSCDKTHTCPPCPAPELLGGPSVFLFPPKPKDTLMISRTPEVTCVVVDVSHEDPEVKFNWYVDGVEVHNAKTKPREEQYNSTYRVVSVLTVLHQDWLNGKEYKCKVSNKALPAPIEKTISKAKGQPREPQVYTLPPSRDELNPPYLFSNQVSLTCLVKGFYPSDIAVEWESNGQPENNYKTTPPVLDSDGSFFLYSKLTVYHWRWLEGNVFSCSVMHEALHNHYTQKSLSLSPG
light: DIQMTQSPASLSASVGETVTITCRASGNIHNYLAWYQQKQGKSPQLLVYNAKTLADGVPSRFSGSGSGTQYSLKINSLQPEDFGSYYCQHFWSTPRTFGGGTKLEIKRTVAAPSVFIFPPSDEQLKSGTASVVCLLNNFYPREAKVQWKVDNALQSGNSQESVTEQDSKDSTYSLSSTLTLSKADYEKHKVYACEVTHQGLSSPVTKSFNRGEC
notes: Mock mAb^2, IgG1 without LALA; also called FS22-053-17; FS22-053-017/HeID1.3
B2: FS22-053-008/HelD1.3 (bispecific antibody, human IgG1, kappa)
heavy: B1 heavy with Y417D, H418Y
light: B1 light
notes: Mock mAb^2, IgG1 without LALA; also called FS22-053-008/HeID1.3
B3: FS22-172-003/HelD1.3 (bispecific antibody, human IgG1, kappa)
heavy: B1 heavy with N358P, P359Y, P360I, Y361I, L362P, F363P, S364Y, Y417G, H418A, W419D
light: B1 light
notes: Mock mAb^2, IgG1 without LALA
B4: FS22-053-010/HelD1.3 (bispecific antibody, human IgG1, kappa)
heavy: B1 heavy with Y417D, H418Y, W419M, E423D
light: B1 light
notes: Mock mAb^2, IgG1 without LALA; also called FS22-053-010/HeID1.3
B5: FS22-172-004/HelD1.3 (bispecific antibody, human IgG1, kappa)
heavy: B1 heavy with P359Y, P360I, L362P, F363P, S364Y, Y417G, H418A, W419D
light: B1 light
notes: Mock mAb^2, IgG1 without LALA
B6: FS22-053-009/HelD1.3 (bispecific antibody, human IgG1, kappa)
heavy: B1 heavy with Y417E, W419T, E423D
light: B1 light
notes: Mock mAb^2, IgG1 without LALA; also called FS22-053-009/HeID1.3
B7: FS22-053-012/HelD1.3 (bispecific antibody, human IgG1, kappa)
heavy: B1 heavy with Y417D, W419M
light: B1 light
notes: Mock mAb^2, IgG1 without LALA; also called FS22-053-012/HeID1.3
B8: FS22-053-011/HelD1.3 (bispecific antibody, human IgG1, kappa)
heavy: B1 heavy with Y417D, H418Y, L422T, E423D
light: B1 light
notes: Mock mAb^2, IgG1 without LALA; also called FS22-053-011/HeID1.3
B9: FS22-053/HelD1.3 (bispecific antibody, human IgG1, kappa)
heavy: B1 heavy with H418Y, W419N, L422Q, E423D
light: B1 light
notes: Mock mAb^2, IgG1 without LALA; also called FS22-053/HeID1.3

Target: T4, human CD137, full length, on cells (human, UniProt Q07011 24-255)
T4 sequence (Q07011 24-255): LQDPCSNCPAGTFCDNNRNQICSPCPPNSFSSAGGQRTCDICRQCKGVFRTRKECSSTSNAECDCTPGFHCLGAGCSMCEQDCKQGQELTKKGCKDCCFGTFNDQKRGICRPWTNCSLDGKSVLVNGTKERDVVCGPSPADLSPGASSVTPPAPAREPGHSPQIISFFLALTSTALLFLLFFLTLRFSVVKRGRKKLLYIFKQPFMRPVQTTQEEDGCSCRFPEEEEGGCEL
Assay: cell-based or functional assay

| Binder | IL-2 release, human CD137 DO11.10 T cell activation assay, Protein L: +XL EC50 [nM] |
| --- | --- |
| B1 | 0.82 |

Target: T4, human CD137, full length, on cells
Assay: cell-based or functional assay
Remark: another data set of the same source

| Binder | NF-kB signalling, HEK.FRT.luc.hCD137, +XL (EC50 nM) [nM] |
| --- | --- |
| B2 | 26.3 |
| B3 | 32.6 |
| B4 | 47.5 |
| B5 | 124 |
| B6 | 64.6 |
| B7 | 119 |
| B8 | 32.8 |

Target: T5, hCD137-Avi-His (human, UniProt Q07011 24-186, single biotin on the Avi sequence (BirA); unbiotinylated in the SPR of Example 5.6)
T5 construct: also called human CD137-Avi-His; monomeric human CD137
T5 sequence (Q07011 24-186): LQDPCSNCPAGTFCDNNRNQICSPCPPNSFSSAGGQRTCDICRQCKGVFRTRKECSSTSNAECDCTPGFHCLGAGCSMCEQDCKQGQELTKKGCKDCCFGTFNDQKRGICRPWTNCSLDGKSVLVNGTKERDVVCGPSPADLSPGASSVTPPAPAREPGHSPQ
Assay: SPR (Biacore), mAb2 captured by anti-human Fab, antigen in solution, 1:1 Langmuir
Protocol: (§1) An anti-human Fab capture antibody was immobilised on all four flow cells of a CM5 series S chip (GE Healthcare #BR-1005-30) to an average surface density of 6000 RU following the manufacturer's recommendations (GE Healthcare, human Fab capture Kit, #28958325). IEach mAb² was captured to approximately 150 RU by injecting a 3 μg/ml solution of mAb² diluted in HBS-EP+ buffer (GE Healthcare #BR1006-69) for 60 seconds at 30 μl/min. Then different concentrations of human, cyno or mouse CD137 antigen (unbiotinylated human, cyno or mouse CD137-mFc-Avi or human CD137-Avi-His) in HBS-EP+ buffer were flowed over the chip for 3 min at 60 μl/min and then allowed to dissociate for 10 minutes. After each antigen concentration the chip was regenerated by infecting 10 mM glycine pH 2.1 at a flow rate of 30 μl/min for 30 seconds. Buffer HBS-EP+ was injected before the highest concentration of antigen and after the lowest concentration of antigen for reference subtraction, and one of the concentrations at random was repeated twice. The binding kinetics were fit with a 1:1 Langmuir model to generate equilibrium binding constants (KD) for each sample. Data analysis was performed with BiaEvaluation software version 3.2.

| Binder | Human monomeric CD137 KD fold difference relative to human dimeric KD [fold] |
| --- | --- |
| B2 | 170 |
| B3 | > 200 |
| B5 | > 200 |
| B8 | > 200 |

Target: T6, hCD137-mFc-Avi (human; mouse, UniProt Q07011 24-186, one biotin on the Avi sequence of each monomer (BirA); unbiotinylated in the SPR of Example 5.6)
T6 construct: Made in-house in HEK293-6E; also called human CD137-mFc-Avi; dimeric human CD137; not shown: mouse IgG2a Fc domain (mIgG2a Fc)
T6 sequence (Q07011 24-186): as above
Assay: as above
Protocol: as §1

| Binder | Kd [nM] |
| --- | --- |
| B9 | 38 |
| B2 | 4.2 |
| B3 | 1.5 |
| B5 | 4.3 |
| B8 | 5.5 |

Target: T1, cCD137-mFc-Avi
Assay: as above
Protocol: as §1

| Binder | Kd [nM] |
| --- | --- |
| B9 | 34 |
| B2 | 0.9 |
| B3 | 1.3 |
| B5 | 3.5 |
| B8 | 1.3 |

Target: T2, human OX40
Assay: SPR (Biacore T200), receptor amine-coupled to CM5 chip
Protocol: (§2) The specificity of the anti-human CD137 Fcabs for human CD137 compared to other related TNFSFR family members was tested. 8 of the Fcabs were tested in mock mAb² (HeID1.3) format and measured by SPR in a Biacore T200 (GE Healthcare) by testing for binding to other human TNFRSF receptors: CD40, OX40 and GITR. Amine coupling (amine coupling kit, GE Healthcare, BR-1000-50) was used to coat human CD40, GITR and OX40 to approximately 1000 RU in Biacore CM5 chips (GE Healthcare, cat no 29149603). […] The chip was regenerated by injection of 10 mM glycine pH 2.5 for 12 s at 30 μl/min. Antibodies specific to the different TNFRSF members were used as positive controls to verify Biacore chip coating. Data was double reference subtracted and analysed using BIAevaluation 3.2 software.

| Binder | binding result |
| --- | --- |
| B2 | no binding (tested: starting at 1 µM) |
| B3 | no binding (tested: starting at 1 µM) |
| B4 | no binding (tested: starting at 1 µM) |
| B5 | no binding (tested: starting at 1 µM) |
| B6 | no binding (tested: starting at 1 µM) |
| B7 | no binding (tested: starting at 1 µM) |
| B8 | no binding (tested: starting at 1 µM) |

Target: T3, human GITR
Assay: as above
Protocol: as §2

| Binder | binding result |
| --- | --- |
| B2 | no binding (tested: starting at 1 µM) |
| B3 | no binding (tested: starting at 1 µM) |
| B4 | no binding (tested: starting at 1 µM) |
| B5 | no binding (tested: starting at 1 µM) |
| B6 | no binding (tested: starting at 1 µM) |
| B7 | no binding (tested: starting at 1 µM) |
| B8 | no binding (tested: starting at 1 µM) |

Target: human CD40 (human, UniProt P25942 21-193)
Sequence (P25942 21-193 limits assumed): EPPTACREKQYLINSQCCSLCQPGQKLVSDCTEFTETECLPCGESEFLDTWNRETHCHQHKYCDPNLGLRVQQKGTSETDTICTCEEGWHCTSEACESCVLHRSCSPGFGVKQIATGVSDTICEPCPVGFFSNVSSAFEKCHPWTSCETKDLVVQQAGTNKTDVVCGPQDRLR
Assay: as above
Protocol: as §2

| Binder | binding result |
| --- | --- |
| B2 | no binding (tested: starting at 1 µM) |
| B3 | no binding (tested: starting at 1 µM) |
| B4 | no binding (tested: starting at 1 µM) |
| B5 | no binding (tested: starting at 1 µM) |
| B6 | no binding (tested: starting at 1 µM) |
| B7 | no binding (tested: starting at 1 µM) |
| B8 | no binding (tested: starting at 1 µM) |

Target: T6, hCD137-mFc-Avi
Assay: SPR (Biacore T200), mAb2 captured by anti-human Fab, hCD137-mFc in solution, 1:1 Langmuir
Protocol: For the hCD137-mFc-Avi antigen the following method was used: an anti-human Fab molecule was immobilised on a CM5 chip to a surface density of between 9,000 and 11,000 response units (RU). The antibodies were diluted to 4 μg/ml in HBS-EP buffer and captured by the anti-Fab molecule with a flow rate of […].
For mCD137-mFc-Avi binding kinetic determination, a different approach was used. […] The analysis of the data was done using the Biacore T200 evaluation software. Curves were subtracted against a blank flow cell and fitted using a 1:1 Langmuir binding model with mass transfer, setting RI to zero as constant and Rₘₐₓ to local.

| Binder | Kd [nM] | koff [s⁻¹] | kon [M⁻¹ s⁻¹] |
| --- | --- | --- | --- |
| B1 | 4.59 | 0.000406 | 88500 |

Target: T4, human CD137, full length, on cells
Assay: cell-based or functional assay
Remark: another data set of the same source

| Binder | NF-kB luciferase reporter (HEK.FRT.luc.hCD137), signal with against without Protein L [fold] |
| --- | --- |
| B9 | ≥ 10 |

Target: T7, mouse CD137, full length, on cells (mouse, UniProt P20334 24-256)
T7 sequence (P20334 24-256): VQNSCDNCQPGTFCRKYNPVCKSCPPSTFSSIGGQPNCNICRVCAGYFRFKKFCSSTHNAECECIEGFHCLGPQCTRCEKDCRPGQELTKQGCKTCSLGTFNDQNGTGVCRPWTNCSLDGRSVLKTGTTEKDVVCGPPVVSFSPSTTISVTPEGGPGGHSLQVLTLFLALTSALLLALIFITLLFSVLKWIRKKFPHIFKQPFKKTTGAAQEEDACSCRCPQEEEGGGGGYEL
Assay: cell-based or functional assay

| Binder | IL-2 release, mouse CD137 DO11.10 T cell activation assay: EC50 against that of FS22-053-014 [fold] |
| --- | --- |
| B1 | ~8 |

Target: T7, mouse CD137, full length, on cells
Assay: cell-based or functional assay
Remark: another data set of the same source

| Binder | IL-2 release, mouse CD137 DO11.10 T cell activation assay, Protein L: +XL EC50 [nM] | IL-2 release, mouse CD137 DO11.10 T cell activation assay, Protein L: +XL Emax [pg/mL] |
| --- | --- | --- |
| B1 | 16.7 | 41000 |
